In paper PMC7588232, “Molecular mechanism for direct actin force-sensing by α-catenin” (eLife, 2020):

Biological target: F-actin (filamentous actin), unlabeled, from chicken skeletal muscle (chicken, UniProt P68139 1-377)
Assay: cryo-EM structure; 0.6 uM F-actin in KMEI applied to the grid, then 10 uM metavinculin ABD or 20 uM α-catenin ABD in KMEI, 25 °C; helical reconstruction (IHRSR, RELION 3.0)
Details: both partners purified

Binder | stoichiometry N
H. sapiens α-catenin ABD (αE-catenin 664-906), not Halo-tagged (domain or fragment, residues 699-871 modelled in the map; Form used for cryo-EM; source: E. coli Rosetta2(DE3), purified (Ni-NTA, TEV cleavage, HiTrapQ, Superdex 200; no glycerol); not shown: His6, N-terminal, cleaved; Strep-tag, N-terminal, cleaved) IAGQSARAIMAQLPQEQKAKIAEQVASFQEEKSKLDAEVSKWDDSGNDIIVLAKQMCMIMMEMTDFTRGKGPLKNTSDVISAAKKIAEAGSRMDKLGRTIADHCPDSACKQDLLAYLQRIALYCHQLNICSKVKAEVQNLGGELVVSGVDSAMSLIQAAKNLMNAVVQTVKASYVASTKYQKSQGMASLNLPAVSWKMKAPEKKPLVKREKQDETQTKIKRASQKKHVNPVQALSEFKAMDSI | 1
H. sapiens metavinculin ABD (879-1134), not Halo-tagged (domain or fragment, residues 981-1131 modelled in the map; Form used for cryo-EM; source: E. coli Rosetta2(DE3), purified (Ni-NTA, TEV cleavage, HiTrapQ, Superdex 200; no glycerol); not shown: His6, N-terminal, cleaved; Strep-tag, N-terminal, cleaved) EEKDEEFPEQKAGEVINQPMMMAARQLHDEARKWSSKPGIPAAEVGIGVVAEADAADAAGFPVPPDMEDDYEPELLLMPSNQPVNQPILAAAQSLHREATKWSSKGNDIIAAAKRMALLMAEMSRLVRGGSGTKRALIQCAKDIAKASDEVTRLAKEVAKQCTDKRIRTNLLQVCERIPTISTQLKILSTVKATMLGRTNISDEESEQATEMLVHNAQNLMQSVKETVREAEAASIKIRTDAGFTLRWVRKTPWYQ | 1
